Source: US20190225661A1

Biological target: non-specific polyclonal IgG
Test: non-specific polyclonal IgG (2 ug/ml) added as bait, protein A Sepharose pull-down, deoxycholate release, HGF ELISA

An HGF recovered from beads after pull-down with IgG of 2.8 ng/mL was found for “Hepatocyte Growth Factor (HGF) in human epicardial-derived cell-conditioned medium (EPI CdM) (ligand)” in this work.
